Assay results: US20060183888A1

Substrate: C[C@@H]1CC=N[C@H]1C(=O)NCCCC[C@H](N)C(=O)O
Assay: purified protein, by the assay type
Conditions: other: 37° C., pH 7.2
Method: The pyrophosphate exchange reaction was essentially performed following the method of Cole and Schimmel. All reactions were performed in duplicate at 37° C. The 100 to 200 μl reactions contained (unless noted) 0.3 to 1 HM PylSHis6. […] The specific activity of the radiolabel was adjusted from 4 to 10 dpm/pmol). The concentration of protein was 0.3 to 1 μM. At specific times, 25 μl aliquots were removed and quenched in 500 μl of a stop solution containing 1.6% (w/v) activated acid-washed charcoal (Sigma Chemical Co., St. Louis, Mo.), 80 mM sodium tetrapyrophosphate, and 3.5% (v/v) perchloric acid. Samples were filtered through Whatman GF/C glass-fiber filters and then the filter was washed three times with 5 ml of 40 mM sodium tetrasodium pyrophosphate solution containing 1.7% perchloric acid (v/v) and once with 5 ml 100% ethanol. Filters were dried at 80° C. for 5 minutes then placed in 20 ml scintillation vials containing 10 ml of Ultima Gold F scintillation cocktail (PerkinElmer), shaken once, and counted in a liquid scintillation analyzer. Identical reactions without amino acid, ATP, or enzyme were also set up as negative controls in duplicate.

B1: PylS-His6 (Methanosarcina barkeri) (protein)
chain: MDKKPLDVLISATGLWMSRTGTLHKIKHHEVSRSKIYIEMACGDHLVVNNSRSCRTARAFRHHKYRKTCKRCRVSDEDINNFLTRSTESKNSVKVRVVSAPKVKKAMPKSVSRAPKPLENSVSAKASTNTSRSVPSPAKSTPNSSVPASAPAPSLTRSQLDRVEALLSPEDKISLNMAKPFRELEPELVTRRKNDFQRLYTNDREDYLGKLERDITKFFVDRGFLEIKSPILIPAEYVERMGINNDTELSKQIFRVDKNLCLRPMLAPTLYNYLRKLDRILPGPIKIFEVGPCYRKESDGKEHLEEFTMVNFCQMGSGCTRENLEALIKEFLDYLEIDFEIVGDSCMVYGDTLDIMHGDLELSSAVVGPVSLDREWGIDKPWIGAGFGLERLLKVMHGFKNIKRASRSESYYNGISTNL
Km: 53 µM | kcat: 0.1 s⁻¹
